Measured values as given in patent US20100261660A1 (published 2010).
Numbering of substitutions follows the chain as printed.

B1: Round 2 CD28B4-5* (ligand)
chain: SGITPKSVTKRVKETVMLSCDYNTSTEELTSLRIYWQKDSKMVLAILPGKVQVWPEYKNRTITDMNDNPRIVILALRLSDKGTYTCVVQKPDLKGAYKLEHLASVRLMIRADFPVPSITDIGHPAPNVKRIRCSASGGFPEPRLAWMEDGEELNAVNTTVDQDLDTELYSVSSELDFNVTNNHSIVCLIKYGELSVSQIFPWSKPKQEPPIDQLPFWVIIPVSGALVLTAVVLYCLACRHVARWKRTRRNEETVGTERLSPIYLGSAQSSG
B2: Round 2 CD28BP-14 (ligand)
chain: GISQVTKSVKEMAALSCDYNISIDELARMRIYWQKDQQMVLSIISGQVEVWPEYKNRTITDMNDNPRIVILALRLSDSGTYTCVIQKPVLKGAYKLEHLASVRLMIRADFPVPTINDLGNPSPNIRRLICSTSGGFPRPHLYWLENGEELNATNTTVSQDPGTELYMISSELDFNVTNNHSIVCLIKYGELSVSQIFPWSKPKQEPPIDQLPFWVIIPVSGALVLTAVVLYCLACRHVARWKRTRRNEETVGTERLSPIYLGSAQSSG
B3: Round 2 CD28D2-3 (ligand)
chain: ITPKSVTKRVKETVMLSCDYNTSTEELTSLRIYWQKDSKMVLAILPGKVQVWPEYKNRTITDMNDNPRIVIQALRLSDSGTYTCVIQKPVLKGAYKLEHLASVRLMIRADFPVPTDLGNPSPNIRRLICSTSGGFPRPHLYWLENGEELNATNTTVSQDPGTELYMISSELDFNVTNNHSIVCLIKYGELSVSQIFPWSKPKQEPPIDQLPFWVIIPVSGALVLTAVVLYCLACRHVARWKRTRRNEETVGTERLSPIYLGSAQSSG
B4: Round 2 CD28E2-4 (ligand)
chain: ITPKSVTKRVKETVMLSCDYSTSTEELTSLRIYWQKDSKMVLAILPGKVQVWPEYKNRTITDMNDNPRIVILALRLSDKGTYTCVIQKPVLKGAYKLEHLASVRLMIRADFPVPTINDLGNPSPNIRRLICSTSGGFPRPHLYWLENGEELNATNTTVSQDPGTELYMISSELDFNVTNNHSIVCLIKYGELSVSQIFPWSKPKQEPPIDQLPFWVIIPVSGALVLTAVVLYCLACRHVARWKRTRRNEETVGTERLSPIYLGSAQSSG
B5: Round 2 CD28F3-6 (ligand)
chain: B4 chain with K79S, V90D, A101T, V158L, G163E, E165K
B6: Round 2 CD28E5-2 (ligand)
chain: B4 chain with S21N, K79S, V90D, V158L, G163E, E165K, H181R
B7: Round 2 CD28F7-2 (ligand)
chain: ITPKSVTKRVKETVMLSCDYSTSTEELTSLRIYWQKDSKMVLAILPGKVQVWPEYKNRTITDMNDNPRIVILALRLSDSGTYTCVIQKPVLKGAYKLEHLASVRLMIRADFPVPTINDLGNPSPNIRRLICSTSGGFPEPRLAWMEDGEELNAVNTTVDQDLDTELYSVSSELDFNVTNNHSIVCLIKYGELSVSQIFPWSKPKQEPPIDQLPFWVIIPVSGALVLTAVVLYCLACRHVARWKRTRRNEETVGTERLSPIYLGSAQSSG
B8: Round 2 CD28F8-4 (ligand)
chain: B4 chain with K79S, V158L, G163E, E165K
B9: Round 2 CD28E9-6 (ligand)
chain: B4 chain with S21N, V90D
B10: Round 2 CD28H11-3 (ligand)
chain: B4 chain with S21N, K79S, V158L, G163E, E165K, V229A
B11: Round 2 CD28E10-6 (ligand)
chain: B4 chain with S21N, K79S, V158L, G163E
B12: Round 2 CD28G2-8 (ligand)
chain: B4 chain with S21N, K79S, T115S
B13: Round 2 CD28H6-6 (ligand)
chain: ITPKSVTKRVKETVMLSCDYSTSTEELTSLRIYWQKDSKMVLAILPGKVQVWPEYKNRTITDMNDNPRIVILALRLSDSGTYTCVIQKPVLKGAYKLEHLASVRLMIRADFPVPTINDLGNPSPNIRRLICSGFPRPHLYWLENGEELNATNTTVSQDPGTELYMISSELDFNVTNNHSIVCLIKYGELSVSQIFPWSKPKQEPPIDQLPFWVIIPVSGALVLTAVVLYCLACRHVARWKRTRRNEETVGTERLSPIYLGSAQSSG
B14: Round 2 CD28B6-6 (ligand)
chain: ITPKSVTKRVKETVMLSCDYSTSTEELTSLRIYWQKDSKMVLAILPGKVQVWPEYKNRTITDMNDNPRIVILALRLSDKGTYTCVIQKPVLKGAYKLEHLTSVTLSIRADFPVPSITDIGHPAPNVKRIRCSASGGFPEPRLAWMEDGEELNAVNTTVDQDLDTELYSVSSELDFNATNNHSIVCLIKYGELSVSQIFPWSKPKQEPPIDQLPFWVIVPVSGALVLTAVVLYCLACRHVAR
B15: Round 2 CD28A2-5 (ligand)
chain: ITPKSVTKRVKETVMLSCDYNTSTEELTSLRIYWQKDSKMVLAILPGKVQVWPEYKNRTITDMNDNPRIVILALRLSDSGTYTCVIQKPDLKGAYKLEHLASVRLMIRADFPVPSITDIGHPAPNVKRIRCSASGGFPEPRLAWMEDGEELNAVNTTVDQDLDTELYSVSSELDFNMTSNHSFLCLVKYGDLTVSQTFYWQESKPTPSANQHLTWTIIIPVSAFGISVIIAVILTCLTCRNAAIRRQRRENEGKCKVLSVSIGTKLKFNR
B16: Round 2 CD28D12-5 (ligand)
chain: ITPKSVTKRVKETVMLSCDYSTSTEELTSLRIYWQKDSKMVLAILPGKVQVWPEYKNRTITDMNDNPRIVILALRLSDSGTYTCVIQKPVLKGAYKLEHLASVRLMIRADFPVPSITDIGHPAPNVKRIRCSASGDFPEPRLAWMEDGEELNAVNTTVLDTELYSVSSELDFNVTNNHSIVCLIKYGELSVSQIFPWSKPKQEPPIDQLPFWVIIPVSGALVLTAVVLYCLACRHVARWKRTRRNEETVGTERLSPIYLGSAQPSG
B17: Round 2 CD28D11-1 (ligand)
chain: ITPKSVTKRVKETVMLSCDYNTSTEELTSLRIYWQKDSKMVLAILPGKVQVWPEYKNRTITDMNDNPRIVILALRLSDSGTYTCVVQKNENGSFRREHLTSVTLSIRADFPVPSITDIGHPAPNVKRIRCSASGDFPEPRLAWMEDGEELNAVNTTVDQDLDTELYSVSSELDFNVTNNHSIVCLIKYGELSVSQIFPWSKPKQEPPIDQLPFWVIILVSGALVLTAVVLYCLACRHVARWKRTRRNEETVGTERLSPIYLGSAQSSG
B18: Round 2 CD28C2-4 (ligand)
chain: GISQVTKSVKEMAALSCDYNISIDELARMRIYWQKDQQMVLSIISGQVEVWPEYKNRTITDMNDNPRIVILALRLSDSGTYTCVIQKPVLKGAYKPEHLASVRLMIRADFPVPTINDLGNPSPNIRRLICSTSGGFPRPHLYWLENGEELNATNTTLSQDPETKLYMISSELDFNMTSNHSFLCLVKYGDLTVSQTFYWQESKPTPSANQHLTWTIIIPVSAFGISVIIAVILTCLTCRNAAIRRQRRENEVEMQSCSQSP
B19: Round 2 CD28C7-3 (ligand)
chain: ITPKSVTKRVKETVMLSCDYSTSTEELTSLRIYWQKDSKMVLAILPGKVQVWPEYKNRTITDMNDNPRIVILALRLSDSGTYTCVIQKPDLKGAYKLEHLTSVRLMIRADFPVPSITDIGHPAPNVKRIRCSASGDFPEPRLAWMEDGEELNAVNTTVDQDLDTELYSVSSELDFNVTNNHSIVCLIKYGELSVSQIFPWSKPKQEPPIDQLPFWVIIPVSGALVLTAVVLYCLACRHVARWKRTRRNEETVGTERLSPIYLGSAQSSG
B20: Round 2 CD28G1-9 (ligand)
chain: B19 chain with S21N, D90V, D136G
B21: Round 2 CD28F12-5* (ligand)
chain: B19 chain with S21N, T101A
B22: Round 2 CD28F10-2 (ligand)
chain: B19 chain with S21N
B23: Round 2 CD28B4-3 (ligand)
chain: ITPKSVTKRVKETVMLSCDYNTSTEELTSLRIYWQKDSKMVLAILPGKVQVWPEYKNRTITDMNDNPRIVILALRLSDSGTYTCVIQKPVLKGAYKLEHLTSVRLMIRADFPVPTINDLGNPSPNIRRLICSTSGGFPRPHLYWLENGEELNATNTTLSQDPETKLYMISSELDFNMTSNHSFLCLVKYGDLTVSQTFYWQESKPTPSANQHLTWTIIIPVSAFGISVIIAVILTCLTCRNAAIRRQRRENEVEMQSCSQSP
B24: Round 2 CD28F3-1 (ligand)
chain: B23 chain with V90D, E149K
B25: Round 2 CD28D5-6 (ligand)
chain: B23 chain with N21S, T197S
B26: Round 2 CD28E8-6 (ligand)
chain: B23 chain with L158V, M177T
B27: Round 2 CD28E2-5* (ligand)
chain: B23 chain with I1T, L76P, T101A
B28: Round 2 CD28B6-3 (ligand)
chain: B23 chain with V90D, E254K

Target: T1, Soluble CD28-Ig (extracellular domain of human CD28 fused to the Fc portion of human IgG1) (human, UniProt P10747 19-152, biotin-conjugated (NHS-biotin) in the FACS binding assays)
T1 construct: extracellular domain; bought from R&D Systems; also called sCD28-Ig; CD28-Ig Fc; not shown: Fc portion of human IgG1
Experiment: competitive FACS on transfected cells, biotin-sCD28-Ig with FITC-sCTLA-4-Ig; grade 0-2 of CD28/CTLA-4 ratio vs WT hB7-1

Binder	Binding Score
B1	0
B2	2
B3	1
B4	1
B5	0
B6	0
B7	2
B8	1
B9	0
B10	1
B11	1
B12	1
B13	1
B14	1
B15	0
B16	2
B17	2
B18	1
B19	1
B20	1
B21	1
B22	1
B23	1
B24	0
B25	0
B26	0
B27	0
B28	1
